From patent US20150218244A1

Biological target: IL-10 receptor (IL-10R) on freshly isolated primary blood monocytes (human) (UniProt Q13651)
Assay: cell-based or functional assay

Sequence of IL-10 receptor (IL-10R) on freshly isolated primary blood monocytes (human) (Q13651 22-578, chain 1 of 2): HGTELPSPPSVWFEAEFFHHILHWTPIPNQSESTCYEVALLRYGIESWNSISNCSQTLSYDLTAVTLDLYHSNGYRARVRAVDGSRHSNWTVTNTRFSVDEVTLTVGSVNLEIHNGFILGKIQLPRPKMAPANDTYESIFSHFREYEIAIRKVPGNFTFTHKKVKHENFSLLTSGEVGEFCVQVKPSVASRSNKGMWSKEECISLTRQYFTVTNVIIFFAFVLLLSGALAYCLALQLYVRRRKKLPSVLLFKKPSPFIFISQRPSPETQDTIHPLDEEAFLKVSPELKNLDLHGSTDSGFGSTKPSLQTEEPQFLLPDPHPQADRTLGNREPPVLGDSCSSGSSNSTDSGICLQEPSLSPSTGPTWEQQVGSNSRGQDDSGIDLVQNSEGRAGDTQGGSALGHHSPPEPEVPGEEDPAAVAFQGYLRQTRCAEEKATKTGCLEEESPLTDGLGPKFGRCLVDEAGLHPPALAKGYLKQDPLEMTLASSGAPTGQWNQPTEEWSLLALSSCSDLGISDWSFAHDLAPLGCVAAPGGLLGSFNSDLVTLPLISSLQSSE
Sequence of IL-10 receptor (IL-10R) on freshly isolated primary blood monocytes (human) (Q08334 20-325, chain 2 of 2, further chain): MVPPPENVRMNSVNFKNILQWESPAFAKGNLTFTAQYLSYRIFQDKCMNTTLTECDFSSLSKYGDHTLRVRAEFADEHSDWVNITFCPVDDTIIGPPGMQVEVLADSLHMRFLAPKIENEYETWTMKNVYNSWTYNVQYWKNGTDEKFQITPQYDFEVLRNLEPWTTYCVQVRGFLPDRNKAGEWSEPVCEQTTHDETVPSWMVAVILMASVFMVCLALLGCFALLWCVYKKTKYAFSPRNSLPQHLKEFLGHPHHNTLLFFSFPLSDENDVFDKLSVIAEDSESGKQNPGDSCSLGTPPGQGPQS

Q: With “recombinant wild type human IL-10 (from UniProt P22301 19-178) (ligand)” as the substance, how does the EC50 [nM] pSTAT3 induction read?
A: Its EC50 [nM] pSTAT3 induction is 0.017 nM.

Q: What about the EC50 [nM] pSTAT3 induction, Donor 1 of the same substance?
A: The EC50 [nM] pSTAT3 induction, Donor 1 was 0.029 nM.

Q: What about the EC50 [nM] pSTAT3 induction, Donor 2 of the same substance?
A: Its EC50 [nM] pSTAT3 induction, Donor 2 is 0.019 nM.

Q: What about the EC50 [nM] pSTAT3 induction, Donor 3 of the same substance?
A: The EC50 [nM] pSTAT3 induction, Donor 3 was 0.021 nM.
